Earlier results as cited in patent US20260217837A1, “FGFR3 BINDING MOLECULES AND METHODS OF USE THEREOF” (Regeneron Pharmaceuticals, Inc., priority 2023, published 2026).
Changes are numbered by the printed parent chain. In names and notes the source's numbering stands. Like-named read-outs stand apart in the source and are kept apart here.

B1: MS-Pro-11: anti-FGFR3 Ig-like domain 3 antibody of WO 2002/102972 A2; SEQ ID NO: 30/31 (antibody, V domains shown)
VH: QVQLVQSGAEVKKPGASVKVSCKASGYTFTSYYMHWVRQAPGQGLEWMGWINPNSGGTNYAQKFQGRVTMTRDTSISTAYMELSSLRSEDTAVYYCARYYGSSLYHYVFGGFIDYWGQGTLVTVSS
VL: DIALTQPASVSGSPGQSITISCTGTSSDVGGYNYVSYQQHPGKAPKLMIYDVSNRPSGVSNRFSGSKSGNTASLTISGLQAEDEADYYCQSHHFYEVFGGGTKLTVLGQ
B2: MS-Pro-28: anti-FGFR3 Ig-like domain 3 antibody of WO 2002/102972 A2; SEQ ID NO: 38/39 (antibody, V domains shown)
VH: QVQLVQSGAEVKKPGSSVKVSCKASGGTFSSYAISWVRQAPGQGLEWMGGIIPIFGTANYAQKFQGRVTITADESSTAYMELSSLRSEDTAVYYCARGGGWVSHGYYYLFDLWGQGTLVTVSS
VL: DIQMTQSPSSLSASVGDRVTITCRASQGISSYLAWYQQKPGKAPKLLIYAASSLQSGVPSRFSGSGSGTDFTLTISSLQPEDFAVYYCFQYGSIPPTFGQGTKVEIKRT
B3: FGA0005: anti-FGFR3 (S249C mutant) antibody of WO 2021/010326 A1; SEQ ID NO: 86/87 (antibody, V domains shown)
VH: QSLEESGGRLVTPGTPLTLTCTASGFSLSTYWICWVRQAPGEGLEWIGYISSSGNTYYASWAKGRFTISKTSSTTVDLKMTSLTTEDTATYFCGGHNSDYITGWALDPWGPGTLVTVSS
VL: AAVLTQTASPMSAAVGGTVTINCQSSKSVYRDKWLSWFQQKPGQPPKLLIYGASNLASGVSSRFKGSGSGTQFTLTISDVQCDDAATYYCLGGYSDNSEDAFGGGTEVVVK
B4: MS-Pro-2: anti-FGFR3 Ig-like domain 2 antibody of WO 2002/102972 A2; SEQ ID NO: 24/25 (antibody, V domains shown)
VH: QVQLVQSGAEVKKPGASVKVSCKASGYTFTSYYMHWVRQAPGQGLEWMGWINPNSGGTNYAQKFQGRVTMTRDTSISTAYMELSSLRSEDTAVYYCARDFLGYEFDYWGQGTLVTVSS
VL: DIELTQPPSVSVAPGQTARISCSGDALGDKYASWYQQKPGQAPVLVIYDDSDRPSGIPERFSGSNSGNTATLTISGTQAEDEADYYCQSYDYSADYVFGGGTKLTVLGQ
B5: MS-Pro-26: anti-FGFR3 Ig-like domain 3 antibody of WO 2002/102972 A2; SEQ ID NO: 36/37 (antibody, V domains shown)
VH: QVQLVQSGAEVKKPGASVKVSCKASGYTFTSYYMHWVRQAPGQGLEWMGWINPNSGGTNYAQKFQGRVTMTRDTSISTAYMELSSLRSEDTAVYYCARGYWYAYFTYINYGYFDNWGQGTLVTVSS
VL: DIALTQPASVSGSPGQSITISCTGTSSDVGGYNYVSWYQQHPGKAPKLMIYDVSNRPSGVSNRFSGSKSGNTASLTISGLQAEDEADYYCQSYDNNSDWFGGGTKLTVLGQ
B6: FGA0002: anti-FGFR3 (S249C mutant) antibody of WO 2021/010326 A1; SEQ ID NO: 84/85 (antibody, V domains shown)
VH: QELVESGGGLVQPGGSLKLSCKASGIDFSSYGISWVRQAPGKGLEWIAYIVPGFGIRNYANSVKGRFTISSDNAQNTVFLQMTSLTASDTATYFCARVPQYASSSGYYLPFNLWGPGTLVTVSS
VL: ALVMTQTPSPVSAAVGGTVTINCQASEDIYYNLAWFQQKPGQPPKLLIYRASTLASGVPSRFSGSGSGTEFTLTISDVQCDDAATYYCLGVYTYISADGNAFGGGTEVVVK
B7: FGA0007: anti-FGFR3 (S249C mutant) antibody of WO 2021/010326 A1; SEQ ID NO: 88/89 (antibody, V domains shown)
VH: QSVEESGGRLVTPGTPLTLTCTVSGFSLSSYPMSWVRQAPGKGLEWIGIISSSGRTYYASWAKGRFTISKASSTTAALKMTSLTTEDTATYFCARGGVYKYDDYGDYVLNLWGRGTLVTVSS
VL: AIEMTQTPFSVSAAVGGTVTINCQASENIYSNLAWYQQKPGQPPKLLIYAASYLASGVPSRFKGSGSGTDYTLTISGVQCADAATYYCQCTLYSSTYGVAFGGGTEVVVK
B8: KE63: anti-FGFR3 IIIb and IIIc antibody of WO 2022/040560 A1; SEQ ID NO: 80/81 (antibody, V domains shown)
VH: QVQLQQSGAELVRPGASVTLSCKASGSTFSDFEIHWVKQTPVHGLEWIGGIDPETGGTAYNQKFKGKAILTADRSSSTAYMELRSLTSEDSAVYYCTRNYDGYSQTMDYWGQGTSVTVSS
VL: NIMMTQSPSSLAVSAGEKVTMSCKSSQSVLYSSNQKNYLAWYQQKPGQSPKLLIYWASTRESGVPDRFTGSGSGTDFTLTISSVQAEDLAVYYCHQYLSSYTFGGGTKLEMK
B9: KE94: anti-FGFR3 IIIb and IIIc antibody of WO 2022/040560 A1; SEQ ID NO: 82/83 (antibody, V domains shown)
VH: B8 VH with S30T, G50A, D73V, R74K, E82G, Q105R
VL: B8 VL with T78S, T80S, A86T, K108R
B10: KE58: anti-FGFR3 IIIb and IIIc antibody of WO 2022/040560 A1; SEQ ID NO: 78/79 (antibody, V domains shown)
VH: EVQLQQSGPDLVKPGASVKISCKASGYTVTDYYMNWVKQSHGKSLEWIGDINPNNGVTTYNQKFKDKATLTVDKSSSTAYMELRSLTSEDSAVYYCAREEDFDGFDYWGQGTTLTVSS
VL: DIVMTQSHKFMSTSVGDRVSITCKASQDVSTGVAWYQQKPGQSPQLLIYWASTRHTGVPDRFTGSGSGTDYILTIRSVQAEDLALYYCQQHYSTPLTFGAGTKLELK
B11: MS-Pro-29: anti-FGFR3 Ig-like domain 3 antibody of WO 2002/102972 A2; SEQ ID NO: 40/41 (antibody, V domains shown)
VH: QVQLVQSGAEVKKPGASVKVSCKASGYTFTSYYMHWVRQAPGQGLEWMGWINPNSGGTNYAQKFQGRVTMTRDTSISTAYMELSSLRSEDTAVYYCARTWQYSYFYYLDGGYYFDIWGQGTLVTVSS
VL: DIVLTQSPATLSLSPGERATLSCRASQSVSSSYLAWYQQKPGQAPRLLIYGASSRATGVPARFSGSGSGTDFTLTISSLEPEDFATYYCQQTNNAPVTFGQGTKVEIKRT
B12: KE35: anti-FGFR3 IIIb and IIIc antibody of WO 2022/040560 A1; SEQ ID NO: 74/75 (antibody, V domains shown)
VH: EVQLQQSGPELVKPGASVKMSCKASGYTFTDYNMHWVKQSHGKSLEWIGYINPNNGGTRYNQKFKGKATLTVNKSSSTAYMELRSLTSEDSAVYYCARERDYDGAMDYWGQGTSVTVSS
VL: DIQMTQSPSSLSASLGGKVTITCKASQDINKFIAWYQHKPGKGPRLLIHYTSTLQPGIPSRFSGSGSGRDYSFSISNLEPEDIATYYCLQYDNLLWTFGGGTKLEIK
B13: KE42: anti-FGFR3 IIIb and IIIc antibody of WO 2022/040560 A1; SEQ ID NO: 76/77 (antibody, V domains shown)
VH: B12 VH with E46Q, R59N, K63N, G66D, S77T, A105S, Y108F
VL: B12 VL with Y87F

System: FGFR3
[1] = Exemplary FGFR3 D3 binding sequences, antibodies of cited PCT publications
[2] = Table T-1, exemplary FGFR3 parental antibodies of cited publications

Molecule | Activity [1] | Activity [2]
B1 | Antagonistic | Antagonistic
B2 | Antagonistic | Antagonistic
B3 |  | Antagonistic
B4 |  | Antagonistic
B5 | Antagonistic | Antagonistic
B6 |  | Antagonistic
B7 |  | Antagonistic
B8 | Antagonistic | Antagonistic
B9 | Antagonistic | Antagonistic
B10 | Antagonistic | Antagonistic
B11 | Antagonistic | Antagonistic
B12 | Antagonistic | Antagonistic
B13 | Antagonistic | Antagonistic
